According to patent US20140357845A1:

Experiments:
[1] = biological target: s-H1 Full-length R343Q (A/Brisbane/59/2007), monomeric form (influenza A virus H1N1), B4URD6; settings: remark: other sources report otherwise
[2] = biological target: s-H1 Full-length R343Q (A/Brisbane/59/2007), trimeric form (influenza A virus H1N1), B4URD6; settings: remark: other sources report otherwise

B1: CR6261 (antibody, V domains shown)
VH: EVQLVESGAEVKKPGSSVKVSCKASGGPFRSYAISWVRQAPGQGPEWMGGIIPIFGTTKYAPKFQGRVTITADDFAGTVYMELSSLRSEDTAMYYCAKHMGYQVRETMDVWGKGTTVTVSS
VL: QSVLTQPPSVSAAPGQKVTISCSGSSSNIGNDYVSWYQQLPGTAPKLLIYDNNKRPSGIPDRFSGSKSGTSATLGITGLQTGDEANYYCATWDRRPTAYVVFGGGTKLTVLG
Which results are given for B1?
BLI response [1]: 0.9 nm; BLI response [2]: 1.3 nm
